According to the Human Domainome abundance scans (Beltran et al. 2025):
± gives the uncertainty stated by the source.

B1: Double-stranded RNA-specific adenosine deaminase, residues 296 to 358; numbered along this chain, P55265 (parent)
chain: MAEIKEKICDYLFNVSDSSALNLAKNIGLTKARDINAVLIDMERQGDVYRQGTTPPIWHLTDK

Variants of: B1
Test: abundance fitness (aPCA) (normalised: wild type 0, dead -1); higher = more abundant; growth selection in yeast, the domain comes from the species named
Conditions: Homo sapiens

**Q.** With MAEIKEKICDYLFNVSDSSALNLAKNIGLTKARDINAVVIDMERQGDVYRQGTTPPIWHLTDK [L39V] as the variant, how does the abundance fitness read?
**A.** -0.589 ± 0.08

**Q.** With MAEIKEKICDYLFNVSDSSALNLAKNIGLTKARDINAVHIDMERQGDVYRQGTTPPIWHLTDK [L39H] as the variant, how does the abundance fitness read?
**A.** -0.44 ± 0.13

**Q.** For MAEIKEKICDYLFNVSDSSALNLAKNIGLTKARDINAVKIDMERQGDVYRQGTTPPIWHLTDK [L39K], which abundance fitness is on record?
**A.** -0.096 ± 0.059

**Q.** With MAEIKEKICDYLFNVSDSSALNLAKNIGLTKARDINAVDIDMERQGDVYRQGTTPPIWHLTDK [L39D] as the variant, how does the abundance fitness read?
**A.** -0.125 ± 0.086

**Q.** For MAEIKEKICDYLFNVSDSSALNLAKNIGLTKARDINAVSIDMERQGDVYRQGTTPPIWHLTDK [L39S], which abundance fitness is on record?
**A.** -0.265 ± 0.052

**Q.** Which abundance fitness does the source give for MAEIKEKICDYLFNVSDSSALNLAKNIGLTKARDINAVNIDMERQGDVYRQGTTPPIWHLTDK [L39N] here?
**A.** -0.393 ± 0.089

**Q.** For MAEIKEKICDYLFNVSDSSALNLAKNIGLTKARDINAVRIDMERQGDVYRQGTTPPIWHLTDK [L39R], which abundance fitness is on record?
**A.** -0.365 ± 0.055

**Q.** For MAEIKEKICDYLFNVSDSSALNLAKNIGLTKARDINAVMIDMERQGDVYRQGTTPPIWHLTDK [L39M], which abundance fitness is on record?
**A.** -0.294 ± 0.059

**Q.** Which abundance fitness does the source give for MAEIKEKICDYLFNVSDSSALNLAKNIGLTKARDINAVGIDMERQGDVYRQGTTPPIWHLTDK [L39G] here?
**A.** -0.176 ± 0.05

**Q.** With MAEIKEKICDYLFNVSDSSALNLAKNIGLTKARDINAVIIDMERQGDVYRQGTTPPIWHLTDK [L39I] as the variant, how does the abundance fitness read?
**A.** -0.756 ± 0.094

**Q.** For MAEIKEKICDYLFNVSDSSALNLAKNIGLTKARDINAVPIDMERQGDVYRQGTTPPIWHLTDK [L39P], which abundance fitness is on record?
**A.** -0.385 ± 0.078

**Q.** For MAEIKEKICDYLFNVSDSSALNLAKNIGLTKARDINAVFIDMERQGDVYRQGTTPPIWHLTDK [L39F], which abundance fitness is on record?
**A.** -0.812 ± 0.09

**Q.** With MAEIKEKICDYLFNVSDSSALNLAKNIGLTKARDINAVTIDMERQGDVYRQGTTPPIWHLTDK [L39T] as the variant, how does the abundance fitness read?
**A.** -0.461 ± 0.064

**Q.** Which abundance fitness does the source give for MAEIKEKICDYLFNVSDSSALNLAKNIGLTKARDINAVQIDMERQGDVYRQGTTPPIWHLTDK [L39Q] here?
**A.** -0.244 ± 0.066

**Q.** Which abundance fitness does the source give for MAEIKEKICDYLFNVSDSSALNLAKNIGLTKARDINAVCIDMERQGDVYRQGTTPPIWHLTDK [L39C] here?
**A.** -0.528 ± 0.1

**Q.** With MAEIKEKICDYLFNVSDSSALNLAKNIGLTKARDINAVYIDMERQGDVYRQGTTPPIWHLTDK [L39Y] as the variant, how does the abundance fitness read?
**A.** -0.678 ± 0.087

**Q.** Which abundance fitness does the source give for MAEIKEKICDYLFNVSDSSALNLAKNIGLTKARDINAVAIDMERQGDVYRQGTTPPIWHLTDK [L39A] here?
**A.** -0.148 ± 0.059

**Q.** Which abundance fitness does the source give for MAEIKEKICDYLFNVSDSSALNLAKNIGLTKARDINAVWIDMERQGDVYRQGTTPPIWHLTDK [L39W] here?
**A.** -0.966 ± 0.13

**Q.** With MAEIKEKICDYLFNVSDSSALNLAKNIGLTKARDINHVLIDMERQGDVYRQGTTPPIWHLTDK [A37H] as the variant, how does the abundance fitness read?
**A.** 0.039 ± 0.066

**Q.** For MAEIKEKICDYLFNVSDSSALNLAKNIGLTKARDINMVLIDMERQGDVYRQGTTPPIWHLTDK [A37M], which abundance fitness is on record?
**A.** -0.386 ± 0.071

**Q.** With MAEIKEKICDYLFNVSDSSALNLAKNIGLTKARDINLVLIDMERQGDVYRQGTTPPIWHLTDK [A37L] as the variant, how does the abundance fitness read?
**A.** -0.392 ± 0.061

**Q.** With MAEIKEKICDYLFNVSDSSALNLAKNIGLTKARDINCVLIDMERQGDVYRQGTTPPIWHLTDK [A37C] as the variant, how does the abundance fitness read?
**A.** -0.417 ± 0.072

**Q.** With MAEIKEKICDYLFNVSDSSALNLAKNIGLTKARDINGVLIDMERQGDVYRQGTTPPIWHLTDK [A37G] as the variant, how does the abundance fitness read?
**A.** -0.332 ± 0.043

**Q.** For MAEIKEKICDYLFNVSDSSALNLAKNIGLTKARDINPVLIDMERQGDVYRQGTTPPIWHLTDK [A37P], which abundance fitness is on record?
**A.** -0.145 ± 0.062

**Q.** With MAEIKEKICDYLFNVSDSSALNLAKNIGLTKARDINWVLIDMERQGDVYRQGTTPPIWHLTDK [A37W] as the variant, how does the abundance fitness read?
**A.** -0.453 ± 0.067

**Q.** With MAEIKEKICDYLFNVSDSSALNLAKNIGLTKARDINDVLIDMERQGDVYRQGTTPPIWHLTDK [A37D] as the variant, how does the abundance fitness read?
**A.** -0.101 ± 0.079

**Q.** For MAEIKEKICDYLFNVSDSSALNLAKNIGLTKARDINYVLIDMERQGDVYRQGTTPPIWHLTDK [A37Y], which abundance fitness is on record?
**A.** -0.457 ± 0.12

**Q.** Which abundance fitness does the source give for MAEIKEKICDYLFNVSDSSALNLAKNIGLTKARDINTVLIDMERQGDVYRQGTTPPIWHLTDK [A37T] here?
**A.** -0.173 ± 0.068

**Q.** For MAEIKEKICDYLFNVSDSSALNLAKNIGLTKARDINRVLIDMERQGDVYRQGTTPPIWHLTDK [A37R], which abundance fitness is on record?
**A.** -0.054 ± 0.04

**Q.** With MAEIKEKICDYLFNVSDSSALNLAKNIGLTKARDINSVLIDMERQGDVYRQGTTPPIWHLTDK [A37S] as the variant, how does the abundance fitness read?
**A.** -0.025 ± 0.054

**Q.** With MAEIKEKICDYLFNVSDSSALNLAKNIGLTKARDINEVLIDMERQGDVYRQGTTPPIWHLTDK [A37E] as the variant, how does the abundance fitness read?
**A.** -0.024 ± 0.056

**Q.** Which abundance fitness does the source give for MAEIKEKICDYLFNVSDSSALNLAKNIGLTKARDINQVLIDMERQGDVYRQGTTPPIWHLTDK [A37Q] here?
**A.** -0.11 ± 0.06

**Q.** With MAEIKEKICDYLFNVSDSSALNLAKNIGLTKARDINNVLIDMERQGDVYRQGTTPPIWHLTDK [A37N] as the variant, how does the abundance fitness read?
**A.** -0.247 ± 0.097

**Q.** Which abundance fitness does the source give for MAEIKEKICDYLFNVSDSSALNLAKNIGLTKARDINAYLIDMERQGDVYRQGTTPPIWHLTDK [V38Y] here?
**A.** -1.27 ± 0.39

**Q.** Which abundance fitness does the source give for MAEIKEKICDYLFNVSDSSALNLAKNIGLTKARDINATLIDMERQGDVYRQGTTPPIWHLTDK [V38T] here?
**A.** -0.11 ± 0.057

**Q.** For MAEIKEKICDYLFNVSDSSALNLAKNIGLTKARDINAILIDMERQGDVYRQGTTPPIWHLTDK [V38I], which abundance fitness is on record?
**A.** 0.035 ± 0.07

**Q.** Which abundance fitness does the source give for MAEIKEKICDYLFNVSDSSALNLAKNIGLTKARDINARLIDMERQGDVYRQGTTPPIWHLTDK [V38R] here?
**A.** -0.528 ± 0.049

**Q.** With MAEIKEKICDYLFNVSDSSALNLAKNIGLTKARDINALLIDMERQGDVYRQGTTPPIWHLTDK [V38L] as the variant, how does the abundance fitness read?
**A.** -0.253 ± 0.038

**Q.** With MAEIKEKICDYLFNVSDSSALNLAKNIGLTKARDINAALIDMERQGDVYRQGTTPPIWHLTDK [V38A] as the variant, how does the abundance fitness read?
**A.** 0.343 ± 0.061

**Q.** For MAEIKEKICDYLFNVSDSSALNLAKNIGLTKARDINAMLIDMERQGDVYRQGTTPPIWHLTDK [V38M], which abundance fitness is on record?
**A.** -0.488 ± 0.075

**Q.** For MAEIKEKICDYLFNVSDSSALNLAKNIGLTKARDINAGLIDMERQGDVYRQGTTPPIWHLTDK [V38G], which abundance fitness is on record?
**A.** -0.128 ± 0.06

**Q.** Which abundance fitness does the source give for MAEIKEKICDYLFNVSDSSALNLAKNIGLTKARDINASLIDMERQGDVYRQGTTPPIWHLTDK [V38S] here?
**A.** -0.316 ± 0.057
